Test results as given in patent US20130330294A1, “Serum Amyloid A (SAA) Overrides Regulatory T Cells (TREG) Anergy” (The Board of Trustees of the Leland Stanford Junior …, priority 2010, published 2013).

Experiments:
SOCS3 in Treg = assay: SOCS3 expression in forskolin-treated Treg by intracellular staining; assay type: cell-based, human; conditions: after 24 hour stimulation
Protocol: To evaluate effects of plasma on suppression assays and immune cell cultures, frozen plasma samples were thawed at 25° C. and debris were removed with sterile 40 μm filters (BD Biosciences). All plasma samples were tested in duplicates or triplicates. To control for variations in suppressive and proliferative potentials of Treg and Teff, respectively, both HC and SJIA plasma samples were used in parallel suppression assays with the same set of purified cells for each round of experiments. In addition, fold change in 3H-thymidine cpm in assays with plasma compared to those in complete media alone, was computed to analyze the effects of plasma in suppression assays or stimulation assays. In CFSE assays, percentage of proliferating cells (shown by dye dilution) was used to analyze the effects of plasma on cell proliferation. IL-1Ra, neutralizing antibody against IL-6 and TNF-α (R&D System), and recombinant IL-1, IL-6 (Peprotech) were used to evaluate the roles of these cytokines in suppression assays. Recombinant SAA (Peprotech) was used at different concentrations in suppression assays in the presence of polymixin (5 μg/ml). […] To pharmacologically modulate SOCS3, isolated Treg were cultured with forskolin (Calbiochem) at different concentrations and analyzed for SOCS3 expression at different time points. […]

Treg and Teff [1] = assay: CFSE-based Treg suppression assay with APC; assay type: cell-based, human
Protocol: Carboxyfluorescein diacetate succinimidyl ester (CFSE) dilution assay was used for measuring T cell proliferation in suppression assays. Briefly, Treg were labeled with CFSE using Cell Tracer CFSE Cell Proliferation kit (Molecular Probes) at a final concentration of 10 μM, according to manufacturer's instructions. Assays with labeled cells were performed as described for 3H-thymidine-based suppression assays. After 7 days of culture, cells were harvested and dye dilution was analyzed by flow cytometry. Stimulation assays were set up similarly with allogeneic irradiated APC and only one type of CFSE-labeled T cells (either Treg or Teff). For APC fixation, these cells were first re-suspended in PBS+10% FBS+1% paraformaldehyde for […] at 37° C. Fixed cells were pelleted by centrifugation, washed and then cultured in complete media.
To evaluate effects of plasma on suppression assays and immune cell cultures, frozen plasma samples were thawed at 25° C. and debris were removed with sterile 40 μm filters (BD Biosciences). All plasma samples were tested in duplicates or triplicates. To control for variations in suppressive and proliferative potentials of Treg and Teff, respectively, both HC and SJIA plasma samples were used in parallel suppression assays with the same set of purified cells for each round of experiments. In addition, fold change in 3H-thymidine cpm in assays with plasma compared to those in complete media alone, was computed to analyze the effects of plasma in suppression assays or stimulation assays. In CFSE assays, percentage of proliferating cells (shown by dye dilution) was used to analyze the effects of plasma on cell proliferation. IL-1Ra, neutralizing antibody against IL-6 and TNF-α (R&D System), and recombinant IL-1, IL-6 (Peprotech) were used to evaluate the roles of these cytokines in suppression assays. […] To pharmacologically modulate SOCS3, isolated Treg were cultured with forskolin (Calbiochem) at different concentrations and analyzed for SOCS3 expression at different time points.

[2] = tested on: pERK1/2, pAKT, pSTAT3 in Treg and Teff; assay: Phosphorylation of ERK1/2, AKT and STAT3 in Treg and Teff in suppression assays by FACS; assay type: cell-based, human; conditions: assays with SJIA plasma, day 4; IL-1 RA 1 μM, anti-IL-6 1 μg/ml
Protocol: (§1) Detection of surface markers and intracellular molecules was performed. Antibodies used in these experiments included anti-human RAGE, SOCS3 (Abcam), CD14-FITC, DR-FITC, Foxp3-FITC, Lin (mixture of CD3, CD14, CD16, CD19, CD56)-FITC, CD14-PE, CD25-PE, CD40-PE, CD83-PE, CD127-PE, HVEM-PE, PDL2-PE, IL-1-PE, IL-6-PE, CD3-PerCP, CD4-PerCP, CD19-PerCP, CD25-PerCP, DR-PerCP, Lin-PerCP, CD3-APC, CD4-APC, CD14-APC, CD36-APC, CD86-APC, TLR2-APC, TLR4-APC, PDL1-APC, CCR7-APC, IL-6-APC, Lin-APC (Biolegend), Ki-67 FITC, pSTAT3 Alexa-647, pAKT Alexa-647, pERK1/2 Alexa-647 (BD Biosciences), and FPRL-1-APC(R&D System). Antibodies to mouse proteins used in these experiments included anti-CD25-PE, CD4-PerCP, CD11b-PerCP, CD115-APC, and Foxp3-APC (Biolegend). For in vitro experiments, to assay for expression of different surface and intracellular molecules in a specific cell subset (Treg, Teff or APC) in mixed cell cultures, the relevant subset was labeled with CFSE prior to suppression assays. Cells were pelleted at various time points and underwent standard staining protocols of the manufacturers. For in vivo experiments, cells were harvested from the peritoneal cavity and underwent flow cytometric analysis.

Treg and Teff [3] = assay: Suppression assay without APC (anti-CD3 and anti-CD28 as T cell stimuli); assay type: cell-based, human; conditions: recombinant SAA 25 μg/ml
Protocol: Standard 3H-thymidine-based suppression assays were performed to analyze Treg function. Autologous Treg and Teff were cultured at 3,750 cells per 50 μl per well in complete media (RPMI+10% FBS+1% L-glutamine) with allogeneic irradiated CD3-depleted peripheral blood mononuclear cells (antigen presenting cells or APC), at 37,500 cells per 50 μl per well. Anti-CD3 antibodies (clone UCHT1, BD Biosciences) were pre-coated on U-bottom 96 well plates at 5 μg/ml for 4 hours at 37° C. before suppression assays. Additional media was added so the final volume in each well was 200 μl. On day 6, cells were pulsed with 1 μCi 3H-thymidine (25 μl) per well and harvested on day 7 with a Tomtec cell harvester. 3H-thymidine incorporation was determined using a 1450 microbeta Wallac Trilux liquid scintillation counter. […] Stimulation assays were set up similarly with allogeneic irradiated APC and only one type of T cell (either Treg or Teff). All assays were performed in triplicates. For suppression assays without APC, anti-CD3 antibodies at 5 μg/ml final concentration (clone UCHT1, BD Biosciences) were plate-bound in U-bottom 96-well plates for 4 hours at 37° C. Soluble anti-CD28 (5 μg/ml, BD Biosciences) was added, followed by Teff (40,000 cells per 50 μl per well) and Treg (40,000 cells per 50 μl per well). […]

peritoneal Treg and Teff = assay: In vivo effects of SAA on Treg frequency and proliferation (intraperitoneal injection); parameters: species or system C57B6 mice; conditions: 16 hours
Protocol: as §1, with “C57B6 mice (male, 8 to 10 weeks old) were purchased from Jackson Laboratory. Mice were injected intraperitoneally with recombinant human SAA (Peprotech, 30 μg in 100 μl PBS), purified human serum albumin (Sigma Aldrich, 30 μg in 100 μl PBS), or endotoxin (Sigma Aldrich, 0.25 ng in 100 μl PBS). Animals were sacrificed 16 hours later; peritoneal cells were harvested and stained for surface and intracellular markers to detect Treg frequency and proliferation. In vivo depletion of monocytes was performed with clodronate liposomes (Encapsula). In these experiments, 400 μl of clodronate or empty liposomes were injected intraperitoneally 24 hours before SAA injection. Detection” for “Detection”, “[…],” for “CD127-PE, HVEM-PE, PDL2-PE, IL-1-PE, IL-6-PE,”

[4] = tested on: APC, monocytes and B cells; assay: Secreted and intracellular cytokines in suppression assays, APC, monocyte and B cell cultures; assay type: cell-based, human; conditions: 25 μg/ml, polymixin 5 μg/ml, 24 hours
Protocol: Both suppression assays and APC cultures were set up for supernatant collection. For APC cultures, 50 μl of APC stock solution (750,000 cells per ml) were incubated in a final volume of 200 μl per well in complete media. Plasma samples were used at 35 μl per well. At different time points, supernatants were collected after centrifugation to pellet cells; supernatants representing samples from the same experimental conditions were pooled from 6 wells of 96-well plates and stored at −80° C. until analysis. To detect cytokines in the supernatants, cytometric bead arrays (BD Biosciences) and ELISA (R&D System) were used according to manufacturers' protocols. Similar assays were performed for plasma samples from HC and SJIA subjects.
Detection of surface markers and intracellular molecules was performed. Antibodies used in these experiments included anti-human RAGE, SOCS3 (Abcam), CD14-FITC, DR-FITC, Foxp3-FITC, Lin (mixture of CD3, CD14, CD16, CD19, CD56)-FITC, CD14-PE, CD25-PE, CD40-PE, CD83-PE, CD127-PE, HVEM-PE, PDL2-PE, IL-1-PE, IL-6-PE, CD3-PerCP, CD4-PerCP, CD19-PerCP, CD25-PerCP, DR-PerCP, Lin-PerCP, CD3-APC, CD4-APC, CD14-APC, CD36-APC, CD86-APC, TLR2-APC, TLR4-APC, PDL1-APC, CCR7-APC, IL-6-APC, Lin-APC (Biolegend), Ki-67 FITC, pSTAT3 Alexa-647, pAKT Alexa-647, pERK1/2 Alexa-647 (BD Biosciences), and FPRL-1-APC(R&D System). […]

[5] = in the presence of polymixin (5 μg/ml)

Q: Which “optimal dosing for SOCS3 induction in Treg” value (SOCS3 in Treg) does the source give for `C=C[C@@]1(C)CC(=O)[C@]2(O)[C@@]3(C)[C@@H](O)CCC(C)(C)[C@@H]3[C@H](O)[C@H](OC(C)=O)[C@@]2(C)O1` [forskolin] here?
A: Its value is 100 µM.

Q: With “IL-1Ra: IL-1 receptor antagonist (R&D System)” as the molecule, how does the “inhibition of SJIA plasma-induced Treg proliferation” value (Treg and Teff [1]; suppression assays with SJIA plasma, various concentrations, IL-1 Ra 1 μM, antibodies 1 μg/ml) read?
A: The value was “significant inhibition”.

Q: And the “phosphorylated ERK1/2 in Treg with blocking reagent” value [2]?
A: Its value is “abrogated the increased expression”.

Q: And the “phosphorylation of AKT in Treg with blocking reagent” value [2]?
A: Its value is “inhibited phosphorylation of AKT”.

B1: recombinant human SAA (protein, UniProt P0DJI8 19-122, looked up)
Serum amyloid A-1 protein: RSFFSFLGEAFDGARDMWRAYSDMREANYIGSDKYFHARGNYDAAKRGPGGAWAAEVITDARENIQRFFGHGAEDSLADQAANEWGRSGKDPNHFRPAGLPEKY
Q: With B1 as the molecule, how does the “Treg proliferation in suppression assays” value (Treg and Teff [1]; [5]) read?
A: The value was “selectively enhance proliferation of Treg”.

Q: And the Treg suppressive activity (Treg and Teff [1]; [5])?
A: The Treg suppressive activity was “without reducing their suppressive activity”.

Q: What about the “Treg proliferation in the absence of APC” value (Treg and Teff [3]) of the same molecule?
A: Its value is “failed to induce Treg proliferation”.

Q: And the “Treg abundance in the peritoneal cavity” value (peritoneal Treg and Teff; 30 μg i.p. in 100 μl PBS, vs human serum albumin or endotoxin)?
A: Its value is “significant increase in Treg abundance”.

Q: And the “Teff proliferation in vivo” value (peritoneal Treg and Teff; 30 μg i.p.)?
A: Its value is “did not enhance Teff proliferation”.

Q: And the “percentage of peritoneal Treg expressing Ki-67” value (peritoneal Treg and Teff; 30 μg i.p., vs controls)?
A: Its value is “significantly higher percentage”.

Q: And the “IL-1 production by monocytes compared with B cells” value [4]?
A: Its value is “significantly higher levels”.

Q: And the “IL-6 production by monocytes compared with B cells” value [4]?
A: The value was “significantly higher levels”.
